Columns and labels:
[1] = target: T1, Recombinant human LPL (mature human lipoprotein lipase, amino acids 28-475) (human, UniProt P06858 28-475); test: crystal structure of the complex (data not shown)
T1 construct: also called LPL alone; hLPL
T1 sequence: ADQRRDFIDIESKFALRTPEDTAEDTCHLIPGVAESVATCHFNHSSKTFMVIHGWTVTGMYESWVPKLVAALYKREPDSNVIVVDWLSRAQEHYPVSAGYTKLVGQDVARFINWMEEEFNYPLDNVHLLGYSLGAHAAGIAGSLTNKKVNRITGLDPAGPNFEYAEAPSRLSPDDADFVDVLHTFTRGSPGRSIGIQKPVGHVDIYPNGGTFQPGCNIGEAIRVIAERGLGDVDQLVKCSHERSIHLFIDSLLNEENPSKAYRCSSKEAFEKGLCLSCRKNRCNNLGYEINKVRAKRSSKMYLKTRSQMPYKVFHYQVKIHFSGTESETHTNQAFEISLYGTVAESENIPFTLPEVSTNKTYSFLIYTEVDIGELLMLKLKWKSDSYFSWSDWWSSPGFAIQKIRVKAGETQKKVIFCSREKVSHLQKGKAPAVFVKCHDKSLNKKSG

His6-Human LPL(28-475) = target: T2, His6-Human LPL(28-475) (human, UniProt P06858 28-475); test: Ni-affinity co-purification of untagged GPIHBP1 with N-terminally 6-His tagged LPL (SDS-PAGE), then size exclusion chromatography against MW standards
T2 construct: also called N-terminally 6-His tagged LPL
T2 sequence: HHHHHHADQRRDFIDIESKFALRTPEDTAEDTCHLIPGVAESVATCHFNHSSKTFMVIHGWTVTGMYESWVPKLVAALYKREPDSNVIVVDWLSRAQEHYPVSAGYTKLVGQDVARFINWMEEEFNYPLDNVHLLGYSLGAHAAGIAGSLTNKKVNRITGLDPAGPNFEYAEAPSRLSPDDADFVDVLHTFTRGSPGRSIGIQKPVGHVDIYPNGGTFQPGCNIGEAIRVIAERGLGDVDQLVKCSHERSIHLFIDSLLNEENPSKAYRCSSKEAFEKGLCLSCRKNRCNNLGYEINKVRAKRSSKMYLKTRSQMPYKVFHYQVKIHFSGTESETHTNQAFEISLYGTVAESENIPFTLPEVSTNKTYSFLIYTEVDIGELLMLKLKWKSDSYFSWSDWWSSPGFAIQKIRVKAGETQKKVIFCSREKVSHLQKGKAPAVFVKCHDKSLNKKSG
Description: Initially an attempt was made to purify LPL protein by itself. In order to aid this purification, a variety of LPL constructs were synthesized that were either untagged or had N- or C-terminal tags. These LPL constructs were expressed in mammalian cells and purified using heparin chromatography or Ni-affinity chromatography. […] Co-expression of the purified soluble form of GPIHBP1 with LPL protected LPL against spontaneous inactivation (data not shown). GPIHBP1 was then co-expressed with LPL in the presence of LMF1 in the following manner: N-terminally 6-His tagged LPL, untagged GPIHBP1, and LMF1 were co-transfected in a ratio of 3:1:1 into HEK293T cells. The expressed protein complex was captured using Ni-affinity chromatography. […] Importantly, the presence of GPIHBP1 and LMF1 generated an LPL/GPIHBP1 complex that was homogenous and eluted as a ˜75 KDa complex during size exclusion chromatography (FIG. 1, panel C). This agreed well with the predicted molecular weight of a 1:1 LPL/GPHBP1 complex.

B1: Human soluble GPIHBP1 (aa 21-151) (receptor)
chain: QTQQEEEEEDEDHGPDDYDEEDEDEVEEEETNRLPGGRSRVLLRCYTCKSLPRDERCNLTQNCSHGQTCTTLIAHGNTESGLLTTHSTWCTDSCQPITKTVEGTQVTMTCCQSSLCNVPPWQSSRVQDPTG
notes: also called untagged GPIHBP1; solGPIHBP1
B1: binds [1]; binds (His6-Human LPL(28-475)).

— patent US20220025344A1 (Novartis, published 2022)
